This is an account of results in article PMC7641331, “Ctf18-RFC and DNA Pol ϵ form a stable leading strand polymerase/clamp loader complex required for normal and perturbed DNA replication” (Nucleic Acids Research, 2019).

What is called Kd is the equilibrium constant for the complex coming apart.

For data set [1], the target named is Pol2 1-528 (Saccharomyces cerevisiae) (UniProt P21951). To be noted: cited from earlier work.
In data set [2] the target is Pol2CAT, the complete catalytic domain of Pol2 (residues 1–1192), exonuclease-deficient (D290A/E292A) (S. cerevisiae) (UniProt P21951). Kind of data set: ITC; 170 μM Ctf18-1-8 titrated into 25 μM Pol2CAT in the presence of 50 μM P1P2 DNA; 25°C; 20 mM HEPES pH 7.5, 160 mM NaCl, 1 mM TCEP; 1:1 hetero-association model.
The target of data set [3] is T1, Pol2CAT, the complete catalytic domain of Pol2 (residues 1–1192), exonuclease-deficient (D290A/E292A) (S. cerevisiae, UniProt P21951 1-1192, D290A | E292A).
T1 construct: Pol2, largest (catalytic) subunit of DNA Pol ϵ, S. cerevisiae, residues 1-1192; An iron-sulfur (4Fe4S) cluster is modelled in the structure; No tag cleavage step is described; also called POL2(1–1192)exo; Pol2 catalytic domain; source: E. coli BL21(DE3)Star, purified (Histrap, Superdex 200, MonoQ); not shown: His tag (from the Histrap column)
T1 sequence (looked up): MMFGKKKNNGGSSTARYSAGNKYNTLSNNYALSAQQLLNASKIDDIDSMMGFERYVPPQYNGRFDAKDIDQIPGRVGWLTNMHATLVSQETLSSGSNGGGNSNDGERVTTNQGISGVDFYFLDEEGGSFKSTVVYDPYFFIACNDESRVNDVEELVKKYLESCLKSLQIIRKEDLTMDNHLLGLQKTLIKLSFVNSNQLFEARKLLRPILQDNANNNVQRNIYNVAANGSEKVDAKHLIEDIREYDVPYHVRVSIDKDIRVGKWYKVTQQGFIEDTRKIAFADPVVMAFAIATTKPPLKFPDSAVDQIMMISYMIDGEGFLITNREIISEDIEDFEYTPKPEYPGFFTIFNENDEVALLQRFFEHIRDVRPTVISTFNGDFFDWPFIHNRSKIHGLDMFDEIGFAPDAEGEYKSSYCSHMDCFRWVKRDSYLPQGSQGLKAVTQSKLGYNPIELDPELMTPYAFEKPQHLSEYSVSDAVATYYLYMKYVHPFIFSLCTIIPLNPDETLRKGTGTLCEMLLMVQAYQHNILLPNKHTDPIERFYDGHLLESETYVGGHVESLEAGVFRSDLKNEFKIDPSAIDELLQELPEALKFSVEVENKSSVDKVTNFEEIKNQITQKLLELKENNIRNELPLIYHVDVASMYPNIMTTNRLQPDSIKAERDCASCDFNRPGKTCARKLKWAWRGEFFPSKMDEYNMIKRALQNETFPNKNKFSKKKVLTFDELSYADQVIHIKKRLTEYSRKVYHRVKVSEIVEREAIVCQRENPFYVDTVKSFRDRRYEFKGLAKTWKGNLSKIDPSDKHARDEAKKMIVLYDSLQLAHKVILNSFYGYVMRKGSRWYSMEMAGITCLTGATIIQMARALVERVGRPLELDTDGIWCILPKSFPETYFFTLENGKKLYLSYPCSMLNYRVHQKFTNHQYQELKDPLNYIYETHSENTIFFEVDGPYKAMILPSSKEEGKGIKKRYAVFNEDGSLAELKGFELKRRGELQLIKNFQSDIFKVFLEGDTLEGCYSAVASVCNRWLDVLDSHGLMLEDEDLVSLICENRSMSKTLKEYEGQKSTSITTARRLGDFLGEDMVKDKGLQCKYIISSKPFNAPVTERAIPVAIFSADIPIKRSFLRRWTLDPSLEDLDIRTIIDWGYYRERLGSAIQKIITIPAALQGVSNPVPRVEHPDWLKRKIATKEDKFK
Kind of data set: cryo-EM structure; 2 μM Ctf18-1-8, Pol2CAT and P1P2* DNA in 20 mM HEPES pH 7.5, 160 mM NaCl, 1 mM TCEP; GraFix sucrose gradient with 0.15% glutaraldehyde; only DNA-free classes refined (Class 1 4.2 Å, Class 2 5.8 Å). To be noted: both partners purified.

Data set [4] addresses T2, Pol2CAT (exonuclease-deficient DNA Pol epsilon catalytic domain) (UniProt P21951 1-1192, D290A;E292A).
T2 sequence: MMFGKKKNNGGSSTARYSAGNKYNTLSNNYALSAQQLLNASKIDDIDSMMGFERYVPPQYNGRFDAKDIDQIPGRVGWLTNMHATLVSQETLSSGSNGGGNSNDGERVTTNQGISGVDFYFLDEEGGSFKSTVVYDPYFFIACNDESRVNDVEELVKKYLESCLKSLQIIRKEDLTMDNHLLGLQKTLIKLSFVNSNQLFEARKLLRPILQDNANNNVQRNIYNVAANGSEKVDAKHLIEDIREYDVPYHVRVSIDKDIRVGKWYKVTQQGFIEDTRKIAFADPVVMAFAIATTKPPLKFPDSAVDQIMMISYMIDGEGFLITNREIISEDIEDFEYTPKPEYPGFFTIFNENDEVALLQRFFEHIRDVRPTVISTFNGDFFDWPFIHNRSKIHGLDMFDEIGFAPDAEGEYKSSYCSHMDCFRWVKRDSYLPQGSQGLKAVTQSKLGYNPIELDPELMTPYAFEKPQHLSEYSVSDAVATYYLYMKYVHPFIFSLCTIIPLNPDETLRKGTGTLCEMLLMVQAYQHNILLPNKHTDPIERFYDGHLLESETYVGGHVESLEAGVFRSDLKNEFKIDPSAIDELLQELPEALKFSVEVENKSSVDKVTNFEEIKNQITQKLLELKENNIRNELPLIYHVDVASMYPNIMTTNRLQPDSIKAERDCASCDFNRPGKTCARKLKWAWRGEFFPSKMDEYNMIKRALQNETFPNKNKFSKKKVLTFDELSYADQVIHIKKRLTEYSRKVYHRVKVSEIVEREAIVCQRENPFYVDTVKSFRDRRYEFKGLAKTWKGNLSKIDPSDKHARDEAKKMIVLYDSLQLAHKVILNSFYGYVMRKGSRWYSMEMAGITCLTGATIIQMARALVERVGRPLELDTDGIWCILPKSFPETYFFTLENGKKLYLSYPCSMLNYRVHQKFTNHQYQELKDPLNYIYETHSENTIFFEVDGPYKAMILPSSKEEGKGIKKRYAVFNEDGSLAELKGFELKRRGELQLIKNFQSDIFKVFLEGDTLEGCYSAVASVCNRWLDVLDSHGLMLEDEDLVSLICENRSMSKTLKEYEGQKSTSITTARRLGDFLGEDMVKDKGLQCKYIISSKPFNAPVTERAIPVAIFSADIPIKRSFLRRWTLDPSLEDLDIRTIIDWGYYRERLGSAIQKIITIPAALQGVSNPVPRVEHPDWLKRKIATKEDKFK
Description: EMSA; 50 nM DNA, no dNTP; EMSA: 25 mM HEPES pH 7.5, 60 mM KCl, 10% glycerol, 1 mM TCEP, 50 nM P1P2*, 20 min on ice, 6% Tris-glycine gel at 4 C. To be noted: protein: recombinant; tags: N-terminal His (pETM14); label: 5' Cy3 on P1; 5' overhang 5 nt on P2 (template); 11 bp duplex. (In general: Mobility shift assays separate free from complexed probe on a gel.)

Data set [5] has as its target Pol2CAT (exonuclease-deficient DNA Pol epsilon catalytic domain);Ctf18-1-8 wild type (Ctf18 C-terminal … (Saccharomyces cerevisiae?;Saccharomyces …, UniProt P21951;P49956;P25559;P38877 1-1192;666-741;1-380;1-133, D290A;E292A|)). Description: EMSA supershift; 50 nM DNA; supershift saturated at 125 nM Ctf18-1-8 (lowest tested); DNA binding identical to Pol2CAT alone; EMSA: 25 mM HEPES pH 7.5, 60 mM KCl, 10% glycerol, 1 mM TCEP, 50 nM P1P2*, 20 min on ice, 6% Tris-glycine gel at 4 C. To be noted: protein: recombinant;recombinant; tags: N-terminal His (pETM14); copies: 1;1;1;1; label: 5' Cy3 on P1; 5' overhang 5 nt on P2 (template); 11 bp duplex.

Sequence of Pol2CAT (exonuclease-deficient DNA Pol epsilon catalytic domain);Ctf18-1-8 wild type (Ctf18 C-terminal … (P49956 666-741, chain 2 of 2): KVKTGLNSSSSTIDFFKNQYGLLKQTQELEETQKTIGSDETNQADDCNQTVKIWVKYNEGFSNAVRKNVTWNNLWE
Sequence of Pol2CAT (exonuclease-deficient DNA Pol epsilon catalytic domain);Ctf18-1-8 wild type (Ctf18 C-terminal … (P38877 whole entry, chain 4 of 2, the tested form may be a part): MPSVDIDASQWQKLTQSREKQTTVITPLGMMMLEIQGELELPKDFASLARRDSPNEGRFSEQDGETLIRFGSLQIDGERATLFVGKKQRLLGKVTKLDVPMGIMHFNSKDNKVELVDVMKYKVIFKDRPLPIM

Turning to Ctf18-1-8 (from UniProt P49956), the Kd in data set [1] is 1300 nM. Take “Ctf18-1-8 module (C-terminus of Ctf18 with Dcc1 and Ctf8), wild type (from UniProt P49956 1-741; P25559 1-380; P38877 1-133) (complex)”: in data set [2], the Kd worked out at 40 nM.

B1: Dcc1 (chain of the recombinant Ctf18-1-8 module) (natural protein, S. cerevisiae)
chain: MSINLHSAPEYDPSYKLIQLTPELLDIIQDPVQNHQLRFKSLDKDKSEVVLCSHDKTWVLKQRKHSNTVLLMREFVPEQPITFDETLLFGLSKPYMDVVGFAKTESEFETRETHGELNLNSVPIYNGELDFSDKIMKRSSTKVIGTLEELLENSPCSALEGISKWHKIGGSVKDGVLCILSQDFLFKALHVLLMSAMAESLDLQHLNVEDTHHAVGKDIEDEFNPYTREIIETVLNKFAVQEQEAENNTWRLRIPFIAQWYGIQALRKYVSGISMPIDEFLIKWKSLFPPFFPCDIDIDMLRGYHFKPTDKTVQYIAKSTLPMDPKERFKVLFRLQSQWDLEDIKPLIEELNSRGMKIDSFIMKYARRKRLGKKTVVTSR
notes: Dcc1, S. cerevisiae; The Dcc1 chain of m2, written alone for the pairs that touch in the structures; also called Dcc1WH3 (its last winged helix domain)
Regarding B1, in data set [3], the binding result was “binds”.

B2: P1P2* primer-template (dsDNA)
DNA 1: TAACCGCGTTC
DNA 2: CTCTTGAACGCGGTTA
As to B2, the binding result in data set [4] and in data set [5] was “binds” in each case.
